In experiment [1] the target is recombinant human MCP-1 (human) (UniProt P13500). As to the kind of experiment: BIAcore, ABN912 immobilised, recombinant human MCP-1 in solution, n = 30.
The target of experiment [2] is Rec guinea pig MCP-1 (guinea pig, UniProt Q08782 24-120, limits assumed). As to the kind of experiment: BIAcore, 5 nM chemokine over ABN912, bound amount after 8 min, n = 3. A general note: In SPR one partner is held on a chip, and binding of the other changes the refractive index at the surface.
The target in experiment [3] is Rec pig MCP-1 (pig, UniProt P42831 24-99). The description is as above.
Experiment [4] has as its target Rec dog MCP-1 (dog, UniProt P52203 24-101). The experiment is described as above.
Experiment [5] deals with Rec rabbit MCP-1 (rabbit, UniProt P28292 24-125, limits assumed). Described as above.
Experiment [6] deals with T1, Rec mouse JE/MCP-1 (mouse, UniProt P10148 24-96, limits assumed).
T1 construct: also called mouse MCP-1
The description is as above.

The target of experiment [7] is Rec rat MCP-1 (rat, UniProt P14844 24-148, limits assumed). The experiment is described as above.
Experiment [8] concerns the target recombinant human MCP-1 (human) (UniProt P13500). As to the kind of experiment: BIAcore, 5 nM chemokine over ABN912, bound amount after 8 min.
Experiment [9] has the same target. As to the kind of experiment: SPA, inhibition of (125-I)-MCP-1 binding to membranes of CCR2B expressing CHO cells (CHO#84), three independent experiments.
Experiment [10] addresses T2, rh LEC (human, UniProt O15467 24-120).
T2 sequence (looked up): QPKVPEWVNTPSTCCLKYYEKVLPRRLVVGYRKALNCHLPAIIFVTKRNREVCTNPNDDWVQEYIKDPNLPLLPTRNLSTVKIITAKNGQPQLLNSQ
As to the kind of experiment: BIAcore, 5 nM chemokine over ABN912, bound amount after 8 min, n = 3.

Experiment [11] addresses T3, recombinant human eotaxin-1 (human, UniProt P51671 24-97).
T3 construct: also called rh eotaxin
Described as above.

The target of experiment [12] is rh MCP-4 (human, UniProt Q99616 24-98). The description is as above.
The target in experiment [13] is T4, rh MIP-1β (human, UniProt P13236 24-92).
T4 sequence (looked up): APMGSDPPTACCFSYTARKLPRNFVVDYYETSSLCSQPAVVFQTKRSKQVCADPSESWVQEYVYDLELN
The description is as above.

Experiment [14] addresses T5, rh MIP-1α (human, UniProt P10147 27-92, limits assumed).
T5 sequence (looked up): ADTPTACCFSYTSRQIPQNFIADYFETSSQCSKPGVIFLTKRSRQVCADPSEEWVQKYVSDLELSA
The experiment is described as above.

The target in experiment [15] is T6, rh MCP-2 (human, UniProt P80075 24-99).
T6 sequence (looked up): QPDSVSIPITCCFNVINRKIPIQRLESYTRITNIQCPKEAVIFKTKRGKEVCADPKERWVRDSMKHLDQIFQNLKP
Described as above.

The target in experiment [16] is rh MCP-3 (human, UniProt P80098 24-99). The experiment is described as above.
Experiment [17] deals with T7, rh RANTES (human, UniProt P13501 24-91).
T7 sequence (looked up): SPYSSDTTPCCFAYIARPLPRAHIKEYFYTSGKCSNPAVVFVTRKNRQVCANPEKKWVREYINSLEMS
Described as above.

Experiment [18] deals with T8, MCP-1 mutant K49A (human, UniProt P13500 24-99).
T8 construct: also called K49 to alanine
As to the kind of experiment: BIAcore, mutant MCP-1 (0.75 to 4 nM) over ABN912 captured on anti-Fcγ.

Consider one molecule from patent publication US20040047860A1 (published 2004).

recombinant human MCP-1 (human), sequence (P13500 24-99 limits assumed): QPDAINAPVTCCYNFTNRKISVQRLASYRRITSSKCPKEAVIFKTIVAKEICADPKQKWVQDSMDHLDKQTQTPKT
rh MCP-3, sequence (P80098 24-99 limits assumed): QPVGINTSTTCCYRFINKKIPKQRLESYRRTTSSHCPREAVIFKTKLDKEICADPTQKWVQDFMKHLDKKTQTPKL
rh MCP-4, sequence (Q99616 24-98 limits assumed): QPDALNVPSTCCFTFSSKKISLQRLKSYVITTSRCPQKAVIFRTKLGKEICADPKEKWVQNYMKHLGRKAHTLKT
Rec dog MCP-1, sequence (P52203 24-101 limits assumed): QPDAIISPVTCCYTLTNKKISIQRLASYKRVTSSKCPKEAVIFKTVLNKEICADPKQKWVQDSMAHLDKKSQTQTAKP
T3 sequence (P51671 24-97 limits assumed): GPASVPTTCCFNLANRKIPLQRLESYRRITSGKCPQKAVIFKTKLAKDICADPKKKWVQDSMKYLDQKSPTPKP
Rec guinea pig MCP-1, sequence (Q08782 24-120 limits assumed): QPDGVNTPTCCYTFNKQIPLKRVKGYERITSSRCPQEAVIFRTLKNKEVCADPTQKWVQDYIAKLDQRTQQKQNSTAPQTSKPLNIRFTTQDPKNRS
Rec pig MCP-1, sequence (P42831 24-99 limits assumed): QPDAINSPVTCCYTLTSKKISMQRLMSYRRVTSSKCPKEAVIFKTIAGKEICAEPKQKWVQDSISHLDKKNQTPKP
Rec rabbit MCP-1, sequence (P28292 24-125 limits assumed): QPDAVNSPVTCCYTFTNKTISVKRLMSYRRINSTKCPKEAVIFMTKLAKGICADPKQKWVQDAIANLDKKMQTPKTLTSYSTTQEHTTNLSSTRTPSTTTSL
T8 sequence (P13500 24-99 K72A limits assumed): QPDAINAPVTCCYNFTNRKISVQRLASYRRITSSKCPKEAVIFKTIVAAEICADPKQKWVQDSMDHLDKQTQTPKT
Rec rat MCP-1, sequence (P14844 24-148 limits assumed): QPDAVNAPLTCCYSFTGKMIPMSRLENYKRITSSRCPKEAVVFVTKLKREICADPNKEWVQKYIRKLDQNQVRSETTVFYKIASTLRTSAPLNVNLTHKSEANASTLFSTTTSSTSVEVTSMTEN
T1 sequence (P10148 24-96 limits assumed): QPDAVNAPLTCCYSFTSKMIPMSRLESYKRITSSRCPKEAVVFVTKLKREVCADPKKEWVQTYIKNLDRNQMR

B1: ABN912 antibody (human IgG4/κ anti-human MCP-1 antibody) (antibody, V domains shown)
VH: EVQLVQSGGGLVQPGGSLRLSCAASGFTFSHYWMSWVRQAPGKGLEWLANIEQDGSEKYYVDSVKGRFTISRDNAKNSLYLQMNSLRAEDTAVYFCARDLEGLHGDGYFDLWGRGTLVTVSS
VL: AIQLTQSPSSLSASVGDRVILTCRASQGVSSALAWYQQKPGKAPKLLIYDASSLESGVPSRFSGSGSGPDFTLTISSLQPEDFATYFCQQFNSYPLTFGGGTKVEIK
Regarding B1, in experiment [1], the Kd turned out to be 0.043 nM. In addition, the koff in [1] worked out at 0.0005 s⁻¹. For the same molecule, the association rate constant (kon) in experiment [1] turned out to be 1.3e+07 M⁻¹ s⁻¹. The “Percent binding of ABN912 (compared to recombinant human MCP-1)” value was 2.3% in experiment [2]; 0.5% in [3]; 1.3% in experiment [4]; 0.9% in experiment [5]; -0.4% in experiment [6]; -0.2% in experiment [7]. Besides, the Percent binding of ABN912 (compared to recombinant human MCP-1) in experiment [8] stood at 100%. The Binding to ABN912 (percent compared to recombinant human MCP-1) in experiment [8] was 100%; in experiment [10], -2.8%; in experiment [11], 52.6%; in [12], -2.4%; in experiment [13], -2.9%; in [14], -2.8%. Moreover, the “Binding to ABN912 (percent compared to recombinant human MCP-1)” value in experiment [15] was 6.2%; in [16], 4.3%; in experiment [17], -2.7%. Moreover, the IC50 in [9] was found to be 0.461 nM. Besides, in [18], the “fold decrease of affinity (against MCP-1)” value worked out at 133 fold.

Broadly, the Kd is the free concentration of one partner at which half of the binding sites on the other are occupied at equilibrium, for simple one-to-one binding. Broadly, the koff is a measure of how fast the partners let go of each other. The kon is a measure of how fast the partners come together. The IC50 is the point on the concentration scale where inhibition reaches its midpoint.
